Test: soluble on expression in E. coli; label from the status in PepcDB or PDB records

Soluble on expression in E. coli, not soluble:
MSLKWIDSHIHVDQYKDEEKSKLLKDVEHSKEIKGLIAVSMNYQSSKETVSLAKRYPFVHPAIGFHPEQPIHKEECEKIYKLIEEHVEDIVAIGEVGLPYYLRKEDKRIAVNSYISVLQRFVELASKYDLPIILHAVYEDADIVCDLLEKYKVSRAHFHWFKGSETTMKRMMRNGYYISITPDVLHKEKIRKIVSYYPLEYMMVETDGPWEFQDDVMTHPGMIREVLKEISVIKNMSVDKVMKTIYENTIQFYPTLTGNKTPTSKFDEGHHHHHH, MSLKYLGLCTDLYELTMAQSYLYEGKTGTAVFSLFVRKLPEKRNFLISAGLETLVERIKNFKFGDEEIKYLKSLGIFKDDFLDYLKDFEFSGNVYAIPEGRIVFQNEPLVQVEAPIPEAQLLETLVINTIQFETMIASKAVRSYLVAKGKKLVDFGFRRAHGLEAGILAARASYIAGFDGTSNVEAGREFGIPVVGTMAHSYVMIFDKEEDAFRAFAKLYPKNAIFLIDTYDTIEAAKKVVDLAKEGVPVVGVRIDSGDIVKLSKEVRKILDENGLKNVRIIVSGGVDEYKIKEWFDRGAPIDAFGVGTKFITSADAPYFDIAYKLVEYEGKPKYKLSPGKKTFPYKRQVYRYYENGKMKYDETAKWESKREGEPLVELVMKNGKLIKELPSLKEIREVVMSELEKLPENYKDITKHYEYEVKILDWEEGHHHHHH, MSLLARYLNLIGRRSASPYRPQRLPAKFDNVIVAMSSGVDSSVAAALFAGEFPNTRGVYMQNWSESQSLDDPGKEPCYERDWRDVNRVAKHLNIRVDKVNFEQDYWIDVFEPMLRGYSEGSTPNPDIGCNKFVKFGKLREWLDEKYGTGNYWLVTGHYARVMQEMNGKGLFHLLRSIYRPKDQSYYLSQINSTVLSSLLLPIGHLTKPEVRDLAKYAGLPTAEKPDSQGICFVNNSQHGKFKNFLKHYLPSSPGDIITVDPQSGAKTTWGRHDGLWSYTIGQKVGISMPQADPNYQGTWFVSEKLRDTNEILIVRGRDNPALYSDTMRIENFSSLGPREDTINAFQNTGALTLQFRSLQVPVQIKSCKLNRSADNLDITIHLASKQRAITPGQSCCLYIDDRVLGSGPISHVNNNDTHAEGHHHHHH, MSLLDFGFDESRIYFTVTDRFFNGDKNNDDPHGNNYDKKNPYTYHGGDLKGLTDKISYLKELGINTIWITPIVENTDFNQMFSQGKTQYSCHGYWAKDFEKLDPHLGTMDDLKTLIDTAHDSGIKIMVDVVLNHAGYGMKNKDNSGANNSPTEEDIAKFKGMFRENPGNDFITQESAGLPDFKTEDPEVREKLIEWQTGWIERSKTEKGNTIDYFRVDTVKHVDNTTWKAFKNKLTEINPSFKTIGEYFGADINNDGGQLQNGQMDALLDFGYKGKARDFVNGNIEGTSAYLDDRASKISNTNLMGQFLSSHDEDGFLKTVGDDLGKQMLAASLQITDKGIPVIYYGEELGMSGWNGFEQGDQNRYDMDFERLNDPKYKKVHDHYEKLLNIRKEYSKIFSKGNRKTIAGNNEEGYSVVLRSYNGKEITPMNLSENNEEKNITNGQNLFVVLNTKNEDKDISFKTNFKEGEKVKDLYSGNEYSIGKDGKVTVKVPSKEGHHHHHH

Soluble on expression in E. coli, soluble:
MSLKTGRALRIAVLVSGRLNLWFSSSIIEGLNEVFHDEGYDISIYQMSSTEERSEFFDMLPVRRNVDAVIVISFDIASNEIRQLRSVDVPIIGINSSLPEERGFNAAVRIDDKQGSELAARHLMMLGHRDIVYIRSDREVTLHFSVQGRYESFMACCQANGVEPRVLVTDAGRNRISKVVTQLLSLDHMPTAIACQEDGIAVPLLFQLERNGFTVPNDISIIGYDDSVYARDLGLTTIRQTPVEMAREAARMTLALIEKQPLDEPFKTFPAQLIVRSTTARLHSEGHHHHHH, MSLKTLATIGDNCVDIYPQLNKAFSGGNAVNVAVYCTRYGIQPGCITWVGDDDYGTKLKQDLARMGVDISHVHTKHGVTAQTQVELHDNDRVFGDYTEGVMADFALSEEDYAWLAQYDIVHAAIWGHAEDAFPQLHAAGKLTAFDFSDKWDSPLWQTLVPHLDFAFASAPQEDEALRLKMKAIVARGAGTVIVTLGENGSIAWDGAQFWRQAPEPVTVIDTMGAGDSFIAGFLCGWSAGMTLPQAMAQGTACAAKTIQYHGAEGHHHHHH, MSLKTLFDKTNLGTINMKNRFLRGALWTALADEKGHMTNELSDVYEELARGGVGTIVTGYAFVTENEQPNPRMMGIYDDSFIPEYKEFTDKIHRLGSNIIMQIVYGGFMTEFNVGERVIWGPSTTKNEVTGTLSREMTKEDIKYLVNAYAEAALRVKKSGFDGVEIHGGHGYLVSQFLSPYYNKRTDEYGGSIENRGRFVFEIFKAIREKVGEKFPILIKLNSSDYVKEGGLTIEDSLYVAERLAELGIDAIEVTGGNESIEEVMKNNLGPSRTKVAISKDRESYFKEYAIKLAERINKPVILSGGNRHFDVMEELLNDTNIEYFSLSRPLTAEPDLINKWYSGDLKKPKCKSCNQCYKTYGKRCIFNIKEGHHHHHH, MSLKTTLPISLDWSTEEVIDVVHFFQAIEQAYDQGIAREDLLGKYRRFKEIVPSKSEEKQLFRAYEQENDVSCYQTIKKAREEMEEHIQMEGHHHHHH, MSLKTVAVIGAMEQEIELLREMMENVKAVSFGRFSAYEGELAGKRMVLALSGIGKVNAAVATAWIIREFAADCVINTGSAGGLGKGLKVGDVVIGTETAHHDVDVTAFGYAWGQVPQLPARFASDGILIEAAKRAARTFEGAAVEQGLIVSGDRFVHSSEGVAEIRKHFPEVKAVEMEAAAIAQTCHQLETPFVIIRAVSDSADEKADISFDEFLKTAAANSAKMVAEIVKSL, MSLKVFQFKDWAVACDNIRHCEANGTQAGDGDNPVSLLLSRDAGPGSRLSAQLDVDDPDGDKVGKLTLKVGRIKWTGIDAEQAFSDAQTTQLLAAMLDADEVALADGKREWTLSLAGLKAALLKMDDVQGRVGTVGALVKKGGKPESAAPAAQPAPLLVPLAPPAARPGDQKLLPAILKQLRAVDKACWDELPDAEHPDVQLYRLSASQVLVLRECGRGAYQGSYKAWTSGDAPPFHPREVPLRGSDGKETFLMNASFDKGELSSYAKGRGIGDCGSGASWAWTGKDFKLMSAQEAPQCRGIAGGVSLRTWVTRQKEGHHHHHH, MSLKVGVALSGGVDSAVALYLLLKEGHEVKAFHMKTKEDEFFIKKEIKKKVCCSPSDTADAMRIAHFLGVEIEIVDVKEIFREKVIEPFKRDLLKGLTPNPCAHCNRFVKFGYLMDYVLNQGFDAFASGHYARIEFSEKYGRKVIKKGVDLKKDQSYFLARIEPWRIERLIFPNGIYTKEEIRKIAEEAGIHVAKKQESQDVCFIPDGSIENFLKDEGITLKDGDIITPEGEVVGRHFGYPLYTIGQRKGFKIEKFGRRYYVRGKIPEKNVVVVSDLEDVFFSGLIAEDPVWHVEVPEEFRCVCRVRKKSEEAPAVVKVKDNEVEVSFEKKVFAVTPGQIAAFYDGDTLLGGAIIKEGIREGHHHHHH, MSLKVVSVDTLCCDAGWRNYHFVKLTTDEGIVGWSEFDEGFGSPGVTAVIEQLGKRLVGASVMEHERFFAEAYCLTRPATGGVVSEGIGAIENALLDAKAKTLNVPCYELLGGKLRDRVPVYWSHCPTWRINHPKFFGPPVTDLDGVKRTAEEARERQFRAIKTNIFIHDDGPLHAWRPGFAVPFQPALNVDRKVLRNLRAHLEALRDGAGPDVEILLDLNFNAKPEGYLKILRELADFDLFWVEIDSYSPQGLAYVRNHSPHPISSCETLFGIREFKPFFDANAVDVAIVDTIWNGVWQSMKIAAFADAHDINVAPHNFYGHLCTMINANFAAAVPNLRIMETDIDRLAWEDELFTHAPEYQNGELIIPDRPGWGTDPVEEAILAHPPKVMGGLLQYKRSEGHHHHHH, MSLKYDLKYLSVPLPEEIQRVKEFGDFASADIAIDFWLTKELPQALKERLIIEKDVIKMMRMNEYPHSFAKADQMMRDTFQDYQTEELIRLKETGLVDWVYIDGEPYFQLRFLANLIKTNAAYVARLREAESNQLEILRKKELKENIEQMQKNGGRKVRTTIKATIQVKKEFERPGERVRVHLPLPKACQQQSEIEILATSPEATYIAAEDAPQRTLCFETILKENQTFTVEYCYVNRMVYQQLEENNVDKMQPSFDLEEQLPHIRFTPYLRNLADEIVGDESNPLKKARLIYDFVTTKIHYSFMREYFTISNISEYAATNLKGDCGVQAILFITLCRIAGIPAKWQSGLYVSTHYTGCHDWAQFYIKPYGWLFADLSFGGGAYRDGDRQRWNHYFGNLDVFRMVANSEIQADFQPAKMQLRADPIDNQRGEFEYENEGLPYACLIVSQERLSMEELPFDEGGSHHHHHH, MSLKYFEFTFHTSPCTETVNDVLAAVLGEAGFESFVESEGGLTAYIQQALCDENTIKNAITEFPLPDTEITYTYVEAEDKDWNEEWEKNFFQPIVIDNRCVIHSTFHKDVPQATYDIVINPQMAFGTGHHETTSLIIGELLDNELKDKSLLDMGCGTSILAILARMRGARPCIAIDIDEWCVRNSIENIELNHVDDIAVSQGDASSLVGKGPFDIIIANINRNILLNDMKQYVACMHPGSELYMSGFYVDDIPFIRREAEKNGLTFVHHKEKNRWAAVKFTYEGHHHHHH, MSLKYIIGMDVGTTATKGVLYDINGKAVASVSKGYPLIQTKVGQAEEDPKLIFDAVQEIIFDLTQKIDGKIAAISWSSQMHSLIGLGSDDELLTNSITWADNCAKSIVQDAKNRGFAQQIYRKTGMPMHPMAPIYKLLWLKNKKTEVFSQAQKWIGIKEYIIFRLTGKLVTDTTMAAGTGILNLKTLTWDQELLDILKIKKEQLPKIAQPTKVIFPIKTEYVKKLGIDSDTKIILGASDGYLSTIGVNAIDSDHCALNVGTSGAIRTIVDQPKIDPSASYFCYPADKTHYLLGGPVNNGGIVFNWARQTLFDADETPQDFLDVAQTAPAGSRNLIFLPYLGGERAPIWDANARGSFVGLTRMHQKPEMARAVIEGIIFNLYDAASNLIKNTKKPVAINATGGFLKSDFVRQLCANIFNVPIVTMKEQQSGTLAAMFLARQALGLNQDLSEIGQFAQADKVYFPNPKEAATYQKLFPLYCEIRNALAASYGKFSNINEGHHHHHH, MSLKYKLLVLDVDGTLLNDAKEISKRTLAALLKVQQMGVRIVLASGRPTYGLMPLAKSLELGNYGGYILSYNGCQIINAQNGEILFERRINPEMLPYLEKKARKNNFALFTYHDDTIITDTPENEHIQNEARLNNLKVIKEEEFSVAIDFAPCKCMLVSDDEEALVSLEGHWKRRLNGALDVFRSEPYFLEVVPCAIDKANTLGALLEELDVKREEVIAIGDGVCDVTMIQLAGLGVAMGHSQDSVKVCADYVTASNEEDGVALAVEKAIIAEVRAAEIPLDQLNAQARHALMGNLGIQYTYADEDRVEATMPVDHRTRQPFGILHGGATLALGETVAGLGSMILCQPDEIVVGMQVSGNHISSAHEGDTVRAVATIVHKGRSSHVWNVDVFTSTNKLVSSIRVVNSVMKKREGHHHHHH, MSLLAYTYIEHGKFELREKPEPKITDARDAIVRVTLGSICTSDLHIKHGSVPRAVPGITVGHEMVGVVEEVGAEVTSVRPGDRVTVNVETFCGECFFCHHGYVNNCTDPNGGWALGCRIDGGQAEYVRVPYADQGLNRIPDTVSDEQALFVGDVLATGFWATRISEITEKDTILLIGAGPTGICTLLCSMLKNPKRIIVCEKSPERIQFVREHYPDVLITTPENCKEFVLQNSDHSGADVVLEVAGTEDSFRMAWDCARPNAIVTIVALYDKPLLFPLPEMYGKNLTFKTGGVDGCDCAEILSLIEEGKIDTTPLITHRCSLNEIEEAYRIFENKLDGVIKVAIVCQTESEGHHHHHH
